For series [1], the target named is New York Esophageal 1 antigen (NY-ESO-1), P78358.
In series [2] the target is Aga2p-N9V fusion surface-displayed on yeast, unmodified (G4S)3 linker (construct pCT-N9V, as in strain EBYN9V).

New York Esophageal 1 antigen (NY-ESO-1), P78358, sequence (P78358 whole entry, the tested form may be a part): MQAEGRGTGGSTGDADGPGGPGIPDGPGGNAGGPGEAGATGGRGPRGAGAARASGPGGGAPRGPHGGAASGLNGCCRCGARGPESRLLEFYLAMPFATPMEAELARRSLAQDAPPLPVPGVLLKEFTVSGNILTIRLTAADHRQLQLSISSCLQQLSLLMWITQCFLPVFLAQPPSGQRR

B1: recombinant human Cathepsin S (protein)
chain: LPDSVDWREKGCVTEVKYQGSCGACWAFSAVGALEAQLKLKTGKLVSLSAQNLVDCSTEKYGNKGCNGGFMTTAFQYIIDNKGIDSDASYPYKAMDQKCQYDSKYRAATCSKYTELPYGREDVLKEAVANKGPVSVGVDARHPSFFLYRSGVYYEPSCTQNVNHGVLVVGYGDLNGKEYWLVKNSWGHNFGEEGYIRMARNKGNHCGIASFPSYPEI
Regarding B1, the “cleavage by Cathepsin S” value in series [1] is given as “the N-terminus of NY-ESO-1 (MQ|AE . . . ) ... are cleaved rapidly by Cathepsin S (at the positions indicated by the vertical bars)”. The CatS cleavage rank order in series [2] was found to be 4 rank.

The values above are taken from patent US20080171059.
